Data as given in article PMC12102759 (2025).

B1: ATXN2 peptide 913-928 (Ataxin-2), 16-mer library wild type / PABPC1 PABC (PABPC1 PABC domain, residues 544-623) (parent complex)
chain 1: TLNPNAKEFNPRSFSQ
chain 2: PLTASMLASAPPQEQKQMLGERLFPLIQAMHPTLAGKITGMLLEIDNSELLHMLESPESLRSKVDEAVAVLQAHQAKEAA

Variants of: B1
Experiment: proteomic peptide phage display deep mutational scan (ProP-PD DMS): M13 P8 16-mer library selected against immobilised GST-tagged bait for four days (rounds), NGS of the eluted pools per day and pseudo-replica; bait immobilised on MaxiSorp plates (10 µg), library pre-cleared on GST, 2 h binding at 4 °C, five washes; one round per day, days 1-4; value from days 2 and 3

In order of falling screen value:
1. chain 1 N5M  0.0888 average fractional NGS count over selection days 2 and 3 (reads of this peptide / all reads for the bait, averaged over …
2. chain 1 K7A  0.0221 average fractional NGS count over selection days 2 and 3 (reads of this peptide / all reads for the bait, averaged over …
3. chain 1 S15P  0.012 average fractional NGS count over selection days 2 and 3 (reads of this peptide / all reads for the bait, averaged over …
4. chain 1 N5V  0.0117 average fractional NGS count over selection days 2 and 3 (reads of this peptide / all reads for the bait, averaged over …
5. chain 1 T1Y  0.0102 average fractional NGS count over selection days 2 and 3 (reads of this peptide / all reads for the bait, averaged over …
6. chain 1 S15G  0.00895 average fractional NGS count over selection days 2 and 3 (reads of this peptide / all reads for the bait, averaged over …
7. chain 1 N5L  0.00771 average fractional NGS count over selection days 2 and 3 (reads of this peptide / all reads for the bait, averaged over …
8. chain 1 R12H  0.00563 average fractional NGS count over selection days 2 and 3 (reads of this peptide / all reads for the bait, averaged over …
9. chain 1 K7F  0.00539 average fractional NGS count over selection days 2 and 3 (reads of this peptide / all reads for the bait, averaged over …
10. chain 1 N5H  0.00507 average fractional NGS count over selection days 2 and 3 (reads of this peptide / all reads for the bait, averaged over …
11. chain 1 S13A  0.00421 average fractional NGS count over selection days 2 and 3 (reads of this peptide / all reads for the bait, averaged over …
12. chain 1 S15M  0.00397 average fractional NGS count over selection days 2 and 3 (reads of this peptide / all reads for the bait, averaged over …
13. chain 1 S15E  0.00372 average fractional NGS count over selection days 2 and 3 (reads of this peptide / all reads for the bait, averaged over …
14. chain 1 T1L  0.0036 average fractional NGS count over selection days 2 and 3 (reads of this peptide / all reads for the bait, averaged over …
15. chain 1 T1G  0.00313 average fractional NGS count over selection days 2 and 3 (reads of this peptide / all reads for the bait, averaged over …
16. chain 1 N10L  0.00266 average fractional NGS count over selection days 2 and 3 (reads of this peptide / all reads for the bait, averaged over …
17. chain 1 N5T  0.00242 average fractional NGS count over selection days 2 and 3 (reads of this peptide / all reads for the bait, averaged over …
18. chain 1 P4I  0.00226 average fractional NGS count over selection days 2 and 3 (reads of this peptide / all reads for the bait, averaged over …
19. chain 1 S15W  0.00221 average fractional NGS count over selection days 2 and 3 (reads of this peptide / all reads for the bait, averaged over …
20. chain 1 N3S  0.0019 average fractional NGS count over selection days 2 and 3 (reads of this peptide / all reads for the bait, averaged over …
21. chain 1 F14H  0.00184 average fractional NGS count over selection days 2 and 3 (reads of this peptide / all reads for the bait, averaged over …
22. chain 1 F14L  0.00171 average fractional NGS count over selection days 2 and 3 (reads of this peptide / all reads for the bait, averaged over …
23. chain 1 S13P  0.0016 average fractional NGS count over selection days 2 and 3 (reads of this peptide / all reads for the bait, averaged over …
24. chain 1 R12Y  0.00157 average fractional NGS count over selection days 2 and 3 (reads of this peptide / all reads for the bait, averaged over …
25. chain 1 N5K  0.00157 average fractional NGS count over selection days 2 and 3 (reads of this peptide / all reads for the bait, averaged over …
26. chain 1 R12N  0.00143 average fractional NGS count over selection days 2 and 3 (reads of this peptide / all reads for the bait, averaged over …
27. chain 1 F14Y  0.00139 average fractional NGS count over selection days 2 and 3 (reads of this peptide / all reads for the bait, averaged over …
28. chain 1 E8N  0.00138 average fractional NGS count over selection days 2 and 3 (reads of this peptide / all reads for the bait, averaged over …
29. chain 1 S13L  0.0013 average fractional NGS count over selection days 2 and 3 (reads of this peptide / all reads for the bait, averaged over …
30. chain 1 K7S  0.00126 average fractional NGS count over selection days 2 and 3 (reads of this peptide / all reads for the bait, averaged over …
31. chain 1 F14V  0.00125 average fractional NGS count over selection days 2 and 3 (reads of this peptide / all reads for the bait, averaged over …
32. chain 1 R12M  0.00123 average fractional NGS count over selection days 2 and 3 (reads of this peptide / all reads for the bait, averaged over …
33. chain 1 N10D  0.0012 average fractional NGS count over selection days 2 and 3 (reads of this peptide / all reads for the bait, averaged over …
34. chain 1 K7D  0.00119 average fractional NGS count over selection days 2 and 3 (reads of this peptide / all reads for the bait, averaged over …
35. chain 1 T1K  0.00118 average fractional NGS count over selection days 2 and 3 (reads of this peptide / all reads for the bait, averaged over …
36. chain 1 T1A  0.00105 average fractional NGS count over selection days 2 and 3 (reads of this peptide / all reads for the bait, averaged over …
37. chain 1 T1V  0.000977 average fractional NGS count over selection days 2 and 3 (reads of this peptide / all reads for the bait, averaged over …
38. chain 1 S13Y  0.00087 average fractional NGS count over selection days 2 and 3 (reads of this peptide / all reads for the bait, averaged over …
39. chain 1 K7Q  0.000831 average fractional NGS count over selection days 2 and 3 (reads of this peptide / all reads for the bait, averaged over …
40. chain 1 N10P  0.000829 average fractional NGS count over selection days 2 and 3 (reads of this peptide / all reads for the bait, averaged over …
41. chain 1 N5F  0.000799 average fractional NGS count over selection days 2 and 3 (reads of this peptide / all reads for the bait, averaged over …
42. chain 1 A6T  0.000787 average fractional NGS count over selection days 2 and 3 (reads of this peptide / all reads for the bait, averaged over …
43. chain 1 K7V  0.000726 average fractional NGS count over selection days 2 and 3 (reads of this peptide / all reads for the bait, averaged over …
44. chain 1 P11Y  0.000724 average fractional NGS count over selection days 2 and 3 (reads of this peptide / all reads for the bait, averaged over …
45. chain 1 P11G  0.000676 average fractional NGS count over selection days 2 and 3 (reads of this peptide / all reads for the bait, averaged over …
46. chain 1 P11N  0.000672 average fractional NGS count over selection days 2 and 3 (reads of this peptide / all reads for the bait, averaged over …
47. chain 1 A6V  0.00065 average fractional NGS count over selection days 2 and 3 (reads of this peptide / all reads for the bait, averaged over …
48. chain 1 K7T  0.000636 average fractional NGS count over selection days 2 and 3 (reads of this peptide / all reads for the bait, averaged over …
49. chain 1 K7P  0.000615 average fractional NGS count over selection days 2 and 3 (reads of this peptide / all reads for the bait, averaged over …
50. chain 1 T1H  0.000542 average fractional NGS count over selection days 2 and 3 (reads of this peptide / all reads for the bait, averaged over …
51. chain 1 R12K  0.000537 average fractional NGS count over selection days 2 and 3 (reads of this peptide / all reads for the bait, averaged over …
52. chain 1 P4L  0.000532 average fractional NGS count over selection days 2 and 3 (reads of this peptide / all reads for the bait, averaged over …
53. chain 1 N10A  0.000525 average fractional NGS count over selection days 2 and 3 (reads of this peptide / all reads for the bait, averaged over …
54. chain 1 R12L  0.000524 average fractional NGS count over selection days 2 and 3 (reads of this peptide / all reads for the bait, averaged over …
55. chain 1 N5Q  0.00052 average fractional NGS count over selection days 2 and 3 (reads of this peptide / all reads for the bait, averaged over …
56. chain 1 N10R  0.000511 average fractional NGS count over selection days 2 and 3 (reads of this peptide / all reads for the bait, averaged over …
57. chain 1 R12Q  0.000478 average fractional NGS count over selection days 2 and 3 (reads of this peptide / all reads for the bait, averaged over …
58. chain 1 P11S  0.000475 average fractional NGS count over selection days 2 and 3 (reads of this peptide / all reads for the bait, averaged over …
59. chain 1 S13W  0.000472 average fractional NGS count over selection days 2 and 3 (reads of this peptide / all reads for the bait, averaged over …
60. chain 1 S15H  0.000448 average fractional NGS count over selection days 2 and 3 (reads of this peptide / all reads for the bait, averaged over …
61. chain 1 L2W  0.000443 average fractional NGS count over selection days 2 and 3 (reads of this peptide / all reads for the bait, averaged over …
62. chain 1 S15I  0.000409 average fractional NGS count over selection days 2 and 3 (reads of this peptide / all reads for the bait, averaged over …
63. chain 1 L2M  0.000384 average fractional NGS count over selection days 2 and 3 (reads of this peptide / all reads for the bait, averaged over …
64. chain 1 F14I  0.000362 average fractional NGS count over selection days 2 and 3 (reads of this peptide / all reads for the bait, averaged over …
65. chain 1 P11W  0.000361 average fractional NGS count over selection days 2 and 3 (reads of this peptide / all reads for the bait, averaged over …
66. chain 1 S15V  0.000359 average fractional NGS count over selection days 2 and 3 (reads of this peptide / all reads for the bait, averaged over …
67. chain 1 K7I  0.000344 average fractional NGS count over selection days 2 and 3 (reads of this peptide / all reads for the bait, averaged over …
68. chain 1 F14A  0.000336 average fractional NGS count over selection days 2 and 3 (reads of this peptide / all reads for the bait, averaged over …
69. chain 1 N10H  0.000309 average fractional NGS count over selection days 2 and 3 (reads of this peptide / all reads for the bait, averaged over …
70. chain 1 P4T  0.000273 average fractional NGS count over selection days 2 and 3 (reads of this peptide / all reads for the bait, averaged over …
71. chain 1 E8A  0.000246 average fractional NGS count over selection days 2 and 3 (reads of this peptide / all reads for the bait, averaged over …
72. chain 1 P11Q  0.000241 average fractional NGS count over selection days 2 and 3 (reads of this peptide / all reads for the bait, averaged over …
73. chain 1 T1M  0.000194 average fractional NGS count over selection days 2 and 3 (reads of this peptide / all reads for the bait, averaged over …
74. chain 1 P11M  0.000174 average fractional NGS count over selection days 2 and 3 (reads of this peptide / all reads for the bait, averaged over …
75. chain 1 P11D  8.69e-05 average fractional NGS count over selection days 2 and 3 (reads of this peptide / all reads for the bait, averaged over …
